Source: US20190085092A1

Biological target: STn expressing TAG-72 glycoprotein (human tumor-associated glycoprotein 72) (human) (UniProt Q01973)
Assay: flow cytometry on LS174T cells, 5 µg 3E8, detected with mouse anti-human IgG-PE

Chain of UniProt Q01973 (Q01973 30-937 limits assumed): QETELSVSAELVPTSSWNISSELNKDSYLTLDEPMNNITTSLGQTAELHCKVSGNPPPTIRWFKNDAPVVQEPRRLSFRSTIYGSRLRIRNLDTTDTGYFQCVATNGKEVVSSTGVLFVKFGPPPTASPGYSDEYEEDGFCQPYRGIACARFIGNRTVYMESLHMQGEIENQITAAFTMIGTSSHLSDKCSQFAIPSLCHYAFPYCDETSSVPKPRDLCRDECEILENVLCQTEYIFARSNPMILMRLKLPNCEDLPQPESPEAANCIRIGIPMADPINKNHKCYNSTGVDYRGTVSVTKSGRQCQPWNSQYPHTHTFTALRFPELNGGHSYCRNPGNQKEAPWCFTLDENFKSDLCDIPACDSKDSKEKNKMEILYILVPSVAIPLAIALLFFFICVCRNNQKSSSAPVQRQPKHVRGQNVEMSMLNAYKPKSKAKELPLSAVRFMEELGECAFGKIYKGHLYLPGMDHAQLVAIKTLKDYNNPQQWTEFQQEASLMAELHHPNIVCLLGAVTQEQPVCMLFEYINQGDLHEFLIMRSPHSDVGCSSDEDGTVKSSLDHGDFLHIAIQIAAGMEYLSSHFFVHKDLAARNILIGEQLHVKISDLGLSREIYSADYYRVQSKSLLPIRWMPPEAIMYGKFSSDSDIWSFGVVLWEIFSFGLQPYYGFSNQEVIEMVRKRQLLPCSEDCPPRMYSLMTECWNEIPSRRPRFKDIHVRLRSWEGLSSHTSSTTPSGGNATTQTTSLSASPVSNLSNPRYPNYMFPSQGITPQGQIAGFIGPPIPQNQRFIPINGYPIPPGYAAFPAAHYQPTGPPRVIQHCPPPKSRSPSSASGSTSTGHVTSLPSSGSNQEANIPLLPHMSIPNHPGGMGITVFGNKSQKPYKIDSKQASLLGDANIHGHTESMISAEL

percent of cells stained: 98%
Substance: STn specific antibody (3E8)
